We go through 167 variants from the RNAGym collection of RNA variant scans (doi:10.7554/elife.80360).

B1: Hairpin Ribozyme (parent)
chain: GUCCUCUUUCACGUGCGCGUGAAAGAGAGAAGUGAACCAGAGAAACACACGUUGUGGUAUAUUACCUGGUA

Variants of B1 are the subject of the data set. Kind of data set: self-cleavage, relative activity (ratio to wild type); higher = more cleavage; co-transcriptional.
Consider A36U C50U, for which the self-cleavage stood at 0.125.
The result for G57U U63C reads 0.146; that for U5G A59C, 0.13.
With G15C C50U, the self-cleavage was 0.47.
Take G17U U62A: the self-cleavage is 0.198.
As for U5A U9A, the figure is 0.371.
G57U G69C: the self-cleavage was 0.0914.
Take A30U A49G: the self-cleavage was 0.2.
As for U14C U33C, the figure is 0.0775; as for G27U C37G, 0.109.
As for C16G A44C, the figure is 0.0851; as for A26C U70C, 0.728.
Consider C4A U60C, for which the self-cleavage is 0.521.
With G57C A59C, the self-cleavage was determined as 0.183.
As for G40U A59G, the self-cleavage came to 0.115.
The result for G1U G34C reads 0.143; that for G56C U67A, 0.205.
As for G15C U63G, the figure is 0.127; as for G27U U62G, 0.0869.
With C48U U67G, the self-cleavage is 0.0927.
The result for A43C C46A reads 0.1; that for A11C G27A, 0.403; that for G13C U20A, 0.492.
The result for U7C G56C reads 0.122; that for G13A C65A, 0.743.
As for G25A C48A, the figure is 0.176.
C6G A26G: the self-cleavage was 0.203.
As for U2A G68U, the figure is 0.133.
As for U5G A64G, the figure is 0.177.
As for U33C U63G, the figure is 0.0654; as for A11G A22U, 1.01.
Regarding U9G G42C, the self-cleavage is 0.239.
The result for A36U U67C reads 0.133; that for A35C G56U, 0.153; that for C16G C37U, 0.346.
The result for C12G A59C reads 0.076.
As for G1A U7G, the self-cleavage is 0.148.
As to A23G A28G, the self-cleavage stood at 1.23.
The result for A24U A71G reads 1.11.
The result for C3A A59U reads 0.126.
As for C3U G68C, the self-cleavage was determined as 0.142.
The result for A11G G32C reads 0.0578; that for C10A G13A, 0.501.
The result for A30U A43C reads 0.117; that for G51U U70A, 1.1; that for C16U G32C, 0.0977.
The result for A64U G68A reads 0.173.
In the case of A31U G32A, the self-cleavage amounted to 0.102.
As for A28U A45U, the figure is 0.224; as for C4G G51A, 0.245.
In the case of A23G C46A, the self-cleavage turned out to be 0.132.
As for C6G U8C, the figure is 0.228.
For the variant G42U U60A, the self-cleavage came out at 0.178.
As for G27U, the figure is 0.282; as for G29A A47G, 0.244.
As for A35C C37A, the self-cleavage was determined as 0.269.
On to C50G G54A, for which the self-cleavage was 0.487.
As to C50G G69C, the self-cleavage is 0.227.
As for U2C C4G, the figure is 0.0947.
The result for U9C G40A reads 0.313; that for G51C U52C, 1.16; that for G25A G69A, 0.238.
With G54U A61G, the self-cleavage turned out to be 0.139.
Consider C16A G54U, for which the self-cleavage is 0.595.
For the variant U20A C50U, the self-cleavage was found to be 0.5.
The result for U9G G57U reads 0.379.
For A28C C48A, the self-cleavage amounted to 0.122.
The result for U2A G19C reads 0.106; that for G13A A35C, 0.739.
Regarding A43U G68A, the self-cleavage worked out at 0.0877.
The result for U7A A23G reads 0.866.
The result for C12G U58G reads 0.502.
The result for U7C U63C reads 0.256.
Consider U8C U9C, for which the self-cleavage is 0.275.
The result for G42C G51C reads 0.227.
As for U5C G69C, the figure is 0.0944; as for C37A U55A, 0.121; as for A44G C50G, 0.164.
For C10U U58A, the self-cleavage came to 0.533.
Take G17A U52C: the self-cleavage was determined as 1.11.
The result for U9G U70A reads 0.812; that for A35G C48G, 0.213; that for G42U U58C, 0.259.
Consider G40U U52G, for which the self-cleavage amounted to 0.172.
As for A23G U60G, the figure is 0.516; as for U33C G54C, 0.163.
The result for A43G U52C reads 0.064.
As for G19U G54A, the figure is 0.468; as for U2G U63G, 0.252; as for A44G U60G, 0.0699.
For C38G U70G, the self-cleavage amounted to 0.216.
For C16U A49G, the self-cleavage came out at 0.659.
With G1U U5C, the self-cleavage is 0.
As for C16G A26U, the figure is 0.293.
Take C38G C48A: the self-cleavage amounted to 0.202.
Consider U5A C48A, for which the self-cleavage was 0.0341.
Turning to A35U C48U, the self-cleavage came out at 0.162.
Take U14A G19U: the self-cleavage worked out at 0.736.
On to G21U U62G, for which the self-cleavage came to 0.156.
For the variant C46A A59G, the self-cleavage is 0.107.
Turning to A28U A36G, the self-cleavage came out at 0.656.
For U33C C46U, the self-cleavage came out at 0.0782.
On to A26C U60G, for which the self-cleavage was found to be 0.365.
As for C50A G54C, the figure is 0.375; as for G25A G51A, 0.586; as for C37G U60C, 0.331.
As for G51C G56C, the self-cleavage came to 0.065.
As for G25C A43U, the figure is 0.243.
As for C18U C65G, the figure is 0.27.
As for A31G G34U, the self-cleavage was found to be 1.54.
As to A45U G51A, the self-cleavage came out at 0.075.
The result for C4U A35G reads 0.304; that for C37G A47C, 0.14.
The result for U7A C65G reads 0.284; that for U60C A61G, 0.228; that for G19C A45C, 0.114.
As for A24U U52C, the figure is 0.723.
As for U14G G34A, the self-cleavage came out at 1.05.
For the variant U60A C65A, the self-cleavage turned out to be 0.807.
In the case of U52G U63G, the self-cleavage stood at 0.134.
As for U7C U33G, the figure is 0.129.
As for U33A A61C, the figure is 0.127; as for G27A U33C, 0.0597.
As for A43U A47U, the figure is 0.145; as for C6A U58A, 0.457; as for A35U U52C, 0.811.
With G21U A22C, the self-cleavage came to 0.763.
As for U9G A44G, the figure is 0.129; as for G13A U67C, 0.27; as for U14A U67G, 0.277.
The result for A11G U70C reads 0.952; that for U5C A28G, 0.358.
The result for C12G U55G reads 0.322; that for U33G A44U, 0.23.
For G13A C18G, the self-cleavage came to 0.761.
Regarding A24C U62G, the self-cleavage amounted to 0.199.
With U8A G56C, the self-cleavage was determined as 0.196.
The result for C46A A61C reads 0.311.
As for G57U C66A, the figure is 0.219.
The result for A28G A71C reads 1.26.
For the variant A26U C37U, the self-cleavage was found to be 0.466.
As for A49U U52C, the figure is 0.202; as for U52A G54C, 0.47.
As for U5G G15U, the self-cleavage came to 0.431.
Regarding G32U G34C, the self-cleavage came out at 0.18.
The result for U33C C38G reads 0.123; that for C18G U53G, 0.819.
Take G17A A71U: the self-cleavage is 0.868.
As for A26C U58A, the figure is 0.623.
Consider U52G U53G, for which the self-cleavage was 1.39.
Consider U14G C50A, for which the self-cleavage turned out to be 0.307.
With G25A U52A, the self-cleavage was 0.643.
As for A11U U55G, the figure is 0.339.
As for G1U U60A, the figure is 0.195; as for U2C G21A, 0.0868; as for G34U U62C, 1.23.
Regarding G27C A35C, the self-cleavage is 0.143.
With G32A G56C, the self-cleavage turned out to be 0.0365.
With G13A C50A, the self-cleavage worked out at 0.284.
As for C3U A45U, the figure is 0.159; as for C16G A49C, 0.117; as for U5G G17U, 0.177.
As for A26G A64C, the figure is 0.303; as for G42A A59U, 0.101; as for A44G C46U, 0.139.
As for G21C U53A, the figure is 0.671.
As to G51A U67C, the self-cleavage was found to be 0.296.
